Each block holds one molecule with its values, some of them ahead of it.
Tests used:
OAS2 (Homo sapiens) = OAS2 (Homo sapiens) (UniProt P29728); conditions: cited from earlier work
[1] = molecular target: recombinant human OAS1 (2′-5′-oligoadenylate synthetase 1) (human) (UniProt P00973); test: SEC-SAXS; OAS1 loaded at 4.14 g/L (50 μL) on a Shodex KW404 column, Diamond Light Source B21; peak-1 and peak-2 analysed separately; Mw by SAXS MoW
[2] = molecular target: recombinant human OAS1 (2′-5′-oligoadenylate synthetase 1) (human) (UniProt P00973); test: AUC; sedimentation velocity, OAS1 at 2.0–3.5 g/L, 20°C, 25,000 rpm, 20 mM Tris pH 7.2, 100 mM NaCl, 1 mM DTT, 10% glycerol; monomer to dimer
[3] = molecular target: the molecule itself; test: SEC-SAXS; OAS2 loaded at 4.00 g/L (50 μL) on a Shodex KW404 column, Diamond Light Source B21; volume-based molecular weight from DAMMIN

Molecule: OAS2 (from UniProt P29728)
Kd (OAS2 (Homo sapiens)): 5.1 nM

stoichiometry N [1]: 2 | stoichiometry N [2]: 2
Molecule: recombinant human OAS1 (2′-5′-oligoadenylate synthetase 1) (from UniProt P00973 1-400) (enzyme)

B1: FLAG-tagged OAS2 (recombinant human 2′-5′-oligoadenylate synthetase 2, wild type) (enzyme, UniProt P29728-2 1-687, looked up)
chain: MGNGESQLSSVPAQKLGWFIQEYLKPYEECQTLIDEMVNTICDVLQEPEQFPLVQGVAIGGSYGRKTVLRGNSDGTLVLFFSDLKQFQDQKRSQRDILDKTGDKLKFCLFTKWLKNNFEIQKSLDGFTIQVFTKNQRISFEVLAAFNALSLNDNPSPWIYRELKRSLDKTNASPGEFAVCFTELQQKFFDNRPGKLKDLILLIKHWHQQCQKKIKDLPSLSPYALELLTVYAWEQGCRKDNFDIAEGVRTVLELIKCQEKLCIYWMVNYNFEDETIRNILLHQLQSARPVILDPVDPTNNVSGDKICWQWLKKEAQTWLTSPNLDNELPAPSWNVLPAPLFTTPGHLLDKFIKEFLQPNKCFLEQIDSAVNIIRTFLKENCFRQSTAKIQIVRGGSTAKGTALKTGSDADLVVFHNSLKSYTSQKNERHKIVKEIHEQLKAFWREKEEELEVSFEPPKWKAPRVLSFSLKSKVLNESVSFDVLPAFNALGQLSSGSTPSPEVYAGLIDLYKSSDLPGGEFSTCFTVLQRNFIRSRPTKLKDLIRLVKHWYKECERKLKPKGSLPPKYALELLTIYAWEQGSGVPDFDTAEGFRTVLELVTQYQQLCIFWKVNYNFEDETVRKFLLSQLQKTRPVILDPAEPTGDVGGGDRWCWHLLAKEAKEWLSSPCFKDGTGNPIPPWKVPVKVI
notes: human 2′-5′-oligoadenylate synthetase 2 (OAS2); residues D408, D410, D481, C668, F669, K670 are named; The N-terminal position of FLAG is stated only for the CAFAKA mutant; also called FLAG-OAS2; wild-type OAS2; source: HEK293T, transfected (pcDNA3); in lysate for the co-immunoprecipitation
stoichiometry N [3]: 2
